Laboratory results from patent publication US20090123479A1 (published 2009).

Target: T1, recombinant human IL-23 (human, UniProt Q9NPF7 20-189; P29460 23-328)
T1 construct: also called hIL-23
T1 sequence 1: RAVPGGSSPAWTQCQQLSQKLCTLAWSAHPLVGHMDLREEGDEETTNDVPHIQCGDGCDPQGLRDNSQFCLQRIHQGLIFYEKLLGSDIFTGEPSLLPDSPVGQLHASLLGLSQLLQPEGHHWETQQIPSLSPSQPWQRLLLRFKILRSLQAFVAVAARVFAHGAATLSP
T1 sequence 2: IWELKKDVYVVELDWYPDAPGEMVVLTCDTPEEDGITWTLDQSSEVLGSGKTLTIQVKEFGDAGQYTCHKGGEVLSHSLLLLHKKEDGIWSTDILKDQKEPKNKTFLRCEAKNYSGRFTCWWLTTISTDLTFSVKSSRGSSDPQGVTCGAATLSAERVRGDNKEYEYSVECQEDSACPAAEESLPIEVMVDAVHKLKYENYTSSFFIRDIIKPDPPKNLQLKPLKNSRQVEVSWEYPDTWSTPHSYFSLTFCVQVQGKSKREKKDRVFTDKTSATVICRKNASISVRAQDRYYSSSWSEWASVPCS
Test: IL-23/IL-23R inhibition ELISA (first protocol, OD490): plate coated with human IL23R Fc chimera, antibody pre-incubated with constant human IL-23, bound IL-23 detected with biotinylated anti-human IL-12; tissue culture supernatant
Procedure: Chimeric and humanized mAbs were assessed for their ability to neutralise human IL-23 binding to human IL-23 receptor, and cyno IL23 binding to human IL23 receptor. Plates were coated with human IL23R Fc chimera at 1 μg/diluent (bicarbonate buffer). 50 μl/well of this mixture was incubated overnight at 4° C. The plates were then washed twice with Tris Buffered Saline with 0.05% Tween 20 (TBST). Plates were blocked with 1% BSA TBST 100 μl/well for a minimum of 1 hour at room temperature. The plates were then washed twice with Tris Buffered Saline with 0.05% Tween 20 (TBST). Various concentrations of antibody were incubated in a separate plate with a constant concentration of IL-23 for 1 hour at room temperature. 50 ul of each mixture were transferred to the assay plate and incubated at RT for 1 hr. They were then washed twice with Tris Buffered Saline with 0.05% Tween 20 (TBST). Bound IL23 was detected by anti human 1L12 Biotin labelled Ab (R&D systems BAF219) diluted to 100 ng/ml in 1% BSA TBST. 50 μl/well of the biotinylated antibody was added and incubated at RT for 1 hour. The plates were then washed twice with Tris Buffered Saline with 0.05% Tween 20 (TBST). ExtrAvidin-Peroxidase (Sigma E2886) was diluted 1/1000 in 1% BSA TBST, 50 μl/well was added to the plates. […] The plate was read at OD490 nm using the SOftmaxPRO versamax plate reader.

B1: chimeric 8C92H6 HC1LC1 (antibody, V domains shown)
VH: QVQLQQSGAELARPGTSVKLSCKASGYTFTSYGITWVKQRTGQGLEWIGENYPRSGNTYYNEKFKGKATLTADKSSSTAYMELRSLTSEDSAVYFCARCEFISTVVAPYYYALDYWGQGTSLVTVS
VL: DIVLTQSPASLAVSLGQKATISCKASKKVTIFGSISALHWYQQKPGQPPKLIYNGAKLESGVSARFSDSGSQNRSPFGNQLSFTLTIDPVEADDAATYYCLQNKEVPYTFGGGTKLEIKR
notes: Murine variable regions with human constant regions; also called 8C92H6.HC1LC1 Chimera; 8C9 chimera
  IC50 (read off the curve): ~6 ng/mL
